IntAct's records for PubMed 23064147

B1: Spindle assembly abnormal protein 6 (Caenorhabditis elegans), O62479 (parent)
chain: MTSKIALFDQTLIASLLQPLSLNQPDFKAYKTKVKLKISEQRNETSGEKELKFEISRSDDFEFLFSETLNNEKYQILARDHDLTVDFDAFPKVIIQHLLCKNIVKNLEEDGEVDARKKAGYHSIADPGKPTEINIILDAEKNFCSFELFSKTPISKGKIFSIKLHAVRGDHLISHLLKICSSQAVKLSTFYKSADELASLRQKCGDLEKQVEKLSGVKEEFEEMSEKFKELEDEVELVKEERENIRLLVEDKEDEVADLKQDTESLQKQLEENQEELEIVGNMLREEQGKVDQLQKRNVAHQKEIGKLRAELGTAQRNLEKADQLLKRNSQQQNQQSLDMRKLGELEADLKEKDSMVESLTETIGILRKELENEKLKAAENMDSFEKLSMENENLKEKIAHYRAQRFSPAPSGLPGLQTGLTNRLTPSFKPVLGPHTPYGANLNSRTPFRDNTTLNFQNSTIATPHAFRFNSQLIADETTGSSVTNTPPAQR
partner: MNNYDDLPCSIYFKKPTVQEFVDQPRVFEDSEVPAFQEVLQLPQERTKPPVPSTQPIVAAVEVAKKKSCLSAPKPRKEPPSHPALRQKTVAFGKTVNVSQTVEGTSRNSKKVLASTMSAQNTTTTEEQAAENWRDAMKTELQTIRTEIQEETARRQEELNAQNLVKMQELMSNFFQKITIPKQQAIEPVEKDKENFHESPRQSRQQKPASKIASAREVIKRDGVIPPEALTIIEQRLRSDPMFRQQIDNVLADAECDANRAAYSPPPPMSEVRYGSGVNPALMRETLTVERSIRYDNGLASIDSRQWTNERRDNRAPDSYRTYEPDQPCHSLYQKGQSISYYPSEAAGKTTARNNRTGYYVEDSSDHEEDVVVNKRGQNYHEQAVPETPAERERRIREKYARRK
B2: Spindle assembly abnormal protein 5 (Caenorhabditis elegans), Q20010 (parent)
chain: B1 partner
partner: B1 chain

Variants of: B1
Conditions: with sas5_caeel sas-5, Q20010

Variant | effect of a mutation on the interaction
E278A | decreasing interaction
E276A | decreasing interaction
E275A | decreasing interaction

Variants of: B1
Conditions: with sas5_caeel sas-5, Q20010
Remark: another data set of the same source

Variant | effect of a mutation on the interaction
E278A | disrupting interaction
E276A | disrupting interaction
E275A | disrupting interaction

Variants of: B1
Conditions: with sas5_caeel sas-5, Q20010
Remark: another data set of the same source

Variant | effect of a mutation on the interaction
I279A | decreasing interaction
M283A | decreasing interaction

Variants of: B1
Conditions: with sas5_caeel sas-5, Q20010
Remark: another data set of the same source

Variant | effect of a mutation on the interaction
I279A | disrupting interaction
M283A | disrupting interaction

Variants of: B1
Conditions: with sas5_caeel sas-5, Q20010
Remark: another data set of the same source

Variant | effect of a mutation on the interaction
E286A | decreasing interaction

Variants of: B1
Conditions: with sas5_caeel sas-5, Q20010
Remark: another data set of the same source

Variant | effect of a mutation on the interaction
E287A | decreasing interaction

Variants of: B2
Conditions: with sas6_caeel sas-6, O62479

Variant | effect of a mutation on the interaction
Y400A | decreasing interaction

Variants of: B2
Conditions: with sas6_caeel sas-6, O62479
Remark: another data set of the same source

Variant | effect of a mutation on the interaction
Y400A | disrupting interaction

Variants of: B2
Conditions: with sas6_caeel sas-6, O62479
Remark: another data set of the same source

Variant | effect of a mutation on the interaction
R397C | decreasing interaction

Variants of: B2
Conditions: with sas6_caeel sas-6, O62479
Remark: another data set of the same source

Variant | effect of a mutation on the interaction
R397C | disrupting interaction

Variants of: B2
Conditions: with sas6_caeel sas-6, O62479
Remark: another data set of the same source

Variant | effect of a mutation on the interaction
I396A | decreasing interaction

Variants of: B2
Conditions: with sas6_caeel sas-6, O62479
Remark: another data set of the same source

Variant | effect of a mutation on the interaction
I396A | disrupting interaction

Variants of: B2
Conditions: with sas6_caeel sas-6, O62479
Remark: another data set of the same source

Variant | effect of a mutation on the interaction
R403A | decreasing interaction

Variants of: B2
Conditions: with sas6_caeel sas-6, O62479
Remark: another data set of the same source

Variant | effect of a mutation on the interaction
R403A | disrupting interaction
